Data as given in patent CN116041520A (WUHAN ABCLONAL CO LTD, dated 2023).

Molecular target: T1, 重组Human CD63蛋白(Ala103-Val203) (Human, UniProt P08962 103-203)
T1 construct: Fragment 103-203 of human CD63 expressed in 293F cells from vector pBR322 and purified with imidazole elution; also called 重组CD63蛋白; 重组Human CD63成熟蛋白
T1 sequence: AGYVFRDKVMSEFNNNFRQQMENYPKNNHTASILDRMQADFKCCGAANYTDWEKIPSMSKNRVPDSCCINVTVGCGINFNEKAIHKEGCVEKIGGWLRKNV
Test: sandwich ELISA, 3C5 coated as capture antibody at 2 ug/mL, Human CD63 0-10 ng/mL, OD450

binding result: binds
B1: 针对Human CD63的兔单克隆抗体3C5 (antibody, V domains shown)
VH: QEQLVESGGGLVQPEGSLTLTCTASGFTFSTAWMSWVRQAPGKGLEWIGIINTGGTGKTYYASWAKGRFTCSKTSSTTVTLQMTSLTAADTATYFCARETADFNLWGQGTLVTVSS
VL: DVVMTQTPSSTSEPVGGTVTINCQASESVYNNDDLAWLQQKPGQPPKVLIYSASKLASGVPSRFSGSGSGTQFTLTISGVQCDDAASYYCVGLFDGDYFAFGGGTEVVVKG
notes: Coated on the plate as capture antibody at 2 ug/mL; also called 捕获抗体
